{"source": "paper PMC7338052", "target": "endogenous CHK2 (human (endogenous in LNCaP)) (UniProt O96017)", "sequence (O96017 whole entry)": "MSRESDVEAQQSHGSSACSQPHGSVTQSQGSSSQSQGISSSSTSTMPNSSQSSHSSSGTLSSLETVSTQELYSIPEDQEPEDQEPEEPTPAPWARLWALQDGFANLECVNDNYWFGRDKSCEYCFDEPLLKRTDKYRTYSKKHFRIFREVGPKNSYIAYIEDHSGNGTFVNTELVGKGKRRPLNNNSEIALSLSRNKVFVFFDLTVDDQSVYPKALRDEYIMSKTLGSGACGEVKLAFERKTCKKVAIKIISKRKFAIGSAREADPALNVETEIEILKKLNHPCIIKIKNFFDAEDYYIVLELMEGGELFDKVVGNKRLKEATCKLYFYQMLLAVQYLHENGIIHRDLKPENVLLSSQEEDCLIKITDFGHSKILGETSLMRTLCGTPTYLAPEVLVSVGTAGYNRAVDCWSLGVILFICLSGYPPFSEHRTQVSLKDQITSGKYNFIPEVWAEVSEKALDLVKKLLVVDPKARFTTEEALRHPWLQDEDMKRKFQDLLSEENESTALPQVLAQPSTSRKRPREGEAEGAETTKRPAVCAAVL", "assay": "co-IP; LNCaP cells expressing wtAR, S81A or S308A for 48 hr; untreated or 6 Gy IR; endogenous CHK2 immunoprecipitated one hour after IR from 1 mg lysate; blotted for AR"}
{"substance": "wtAR expressed in LNCaP cells (from UniProt P10275 1-920) (receptor)", "values": [{"measurement": "fold change of AR co-immunoprecipitated with CHK2 after IR against untreated cells", "result": 4, "unit": "fold"}]}
